Test results published in patent publication US20110289632A1, “METHYLKETONE SYNTHASE, PRODUCTION OF METHYLKETONES IN PLANTS AND BACTERIA” (The Regents of the University of Michigan, priority 2009, published 2011).

Substrate: CCCCCCCCCCCC(=O)CC(=O)O
Test: Steady-state kinetic decarboxylase assay (3-ketomyristic acid to 2-tridecanone, GC-MS)
Format: biochemical, Solanum habrochaites f glabratum
Conditions: other: ShMKS1 decarboxylase, substrate 5 μM to 75 μM, pH 7.0, 23° C., 10 min
Description: To examine the possible decarboxylase activity of ShMKS1 as well as ShMKS2 in vitro, we tested homogenous recombinant ShMKS1 and partially purified recombinant ShMKS2 proteins (without their transit peptides) for their ability to convert 3-ketomyristic acid into its 2-tridecanone decarboxylated product. […] In steady-state kinetic assays, ShMKS1 was determined to have a KM of 18.4±5.6 μM for 3-ketomyristic acid, with an apparent kcat of 227.9±24.1 min^−1.
His-tagged ShMKS1 and ShMKS2 were affinity-purified on Nickel-agarose chromatography using the protocol described in Fridman et al., (2005) Metabolic, genomic, and biochemical analyses of glandular trichomes from the wild tomato species Lycopersicon hirsutum identify a key enzyme in the biosynthesis of methylketones, Plant Cell 17: 1252-1267. After elution from the Nickel-agarose column, the proteins were analyzed by SDS-PAGE and ShMKS2 dialyzed against 50 mM phosphate buffer pH 6.8, 500 mM NaCl, and 1M (NH4)2SO4, and 2 mM DTT and ShMKS1 dialyzed against 12.5 mM phosphate buffer pH 6.8, 50 mM NaCl, and 2 mM DTT. ShMKS1 purity was estimated at 99%, and ShMKS2 purity was estimated at 6%.
A typical decarboxylase assay consisted of a 500 μL reaction solution containing ShMKS1 or ShMKS2 (2.5 μg), 3-ketomyristic acid (0.1 mM), and 1,3-bis(tris(hydroxymethyl)methylamino) propane—Na^+ (20 mM, pH 7.0). […]

B1: Solanum habrochaites f glabratum methylketone synthase 1 (ShMKS1), recombinant His-tagged, SEQ ID NO: 17 (Solanum habrochaites) (protein)
chain: MEKSMSPFVKKHFVLVHTAFHGAWCWYKIVALMRSSGHNVTALDLGASGINPKQALQIPNFSDYLSPLMEFMASLPANEKIILVGHALGGLAISKAMETFPEKISVAVFLSGLMPGPNIDATTVCTKAGSAVLGQLDNCVTYENGPTNPPTTLIAGPKFLATNVYHLSPIEDLALATALVRPLYLYLAEDISKEVVLSSKRYGSVKRVFIVATENDALKKEFLKLMIEKNPPDEVKEIEGSDHVTMMSKPQQLFTTLLSIANKYK
notes: no cleavable transit peptide, 265-residue protein
In the case of B1, the Km is reported as 18.4 ± 5.6 µM and the kcat is reported as 3.798 ± 0.402 s⁻¹.
